From patent publication US20170129954A1 (PROTHENA BIOSCIENCES, published 2017)

Molecular target: T1, human MCAM (antigen of the BLI kinetics in Example 7) (human, UniProt P43121 24-559, limits assumed)
T1 chain: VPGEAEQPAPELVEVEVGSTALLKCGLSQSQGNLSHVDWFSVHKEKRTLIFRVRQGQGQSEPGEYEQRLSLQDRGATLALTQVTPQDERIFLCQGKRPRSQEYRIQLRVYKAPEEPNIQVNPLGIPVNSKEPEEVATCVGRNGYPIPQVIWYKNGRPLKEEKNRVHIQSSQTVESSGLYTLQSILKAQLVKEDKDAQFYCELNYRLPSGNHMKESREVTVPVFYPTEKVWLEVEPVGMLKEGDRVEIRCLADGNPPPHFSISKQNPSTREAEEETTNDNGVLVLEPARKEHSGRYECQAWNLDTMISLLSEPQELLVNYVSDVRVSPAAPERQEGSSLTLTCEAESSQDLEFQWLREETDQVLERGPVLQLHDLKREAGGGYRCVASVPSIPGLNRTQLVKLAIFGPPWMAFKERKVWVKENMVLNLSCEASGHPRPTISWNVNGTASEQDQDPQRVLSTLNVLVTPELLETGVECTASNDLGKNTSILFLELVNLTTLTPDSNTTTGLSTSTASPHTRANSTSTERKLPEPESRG
Test: BLI, ForteBio Octet QK, apparent kd
Excerpt: Apparent ka, apparent kd and apparent KD are binding kinetic parameters obtained using ForteBio assay formats.

koff: 0.000402 s⁻¹
B1: mouse anti-human MCAM monoclonal antibody clone 1749.1.3 (antibody, V domains shown)
VH: DVKLVESGGDLVKPGGSLKLSCAASGFTFSSYIMSWVRQTPEKRLEWVATISSGGSSTYYPDSVKGRFTISRDNAKNTLYLQMSSLKSEDTAMYYCTRDDDYDVKVFAYWGQGTLVTVSA
VL: DIVMSQSPSSLAVSAGEKVTMNCKSSRSLLNSRIRKNYLAWYQQKPGQSPKLLIYWASTRESGVPDRFTGSGSGTDFTLTISSVQAEDLAVYYCKQSYNLLTFGAGTKLELK
notes: Mouse hybridoma monoclonal antibody; also called m1749
